Key:
[1] = molecular target: T1, human CD5 expressed on cells (human, UniProt P06127 25-495); assay: cell-based or functional assay
T1 sequence (looked up): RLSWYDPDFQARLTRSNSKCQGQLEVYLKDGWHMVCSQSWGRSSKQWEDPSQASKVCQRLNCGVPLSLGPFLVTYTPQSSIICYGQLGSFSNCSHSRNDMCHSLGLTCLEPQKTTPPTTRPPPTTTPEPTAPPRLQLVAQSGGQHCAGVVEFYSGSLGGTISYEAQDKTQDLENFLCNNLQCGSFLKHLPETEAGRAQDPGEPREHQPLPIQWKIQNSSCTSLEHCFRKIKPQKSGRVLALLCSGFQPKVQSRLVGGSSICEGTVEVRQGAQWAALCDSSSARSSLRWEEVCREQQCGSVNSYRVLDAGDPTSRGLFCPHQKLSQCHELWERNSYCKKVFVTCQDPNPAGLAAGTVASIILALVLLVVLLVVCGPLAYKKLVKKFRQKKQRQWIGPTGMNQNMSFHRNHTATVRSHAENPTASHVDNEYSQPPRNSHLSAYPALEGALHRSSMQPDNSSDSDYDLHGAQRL

[2] = molecular target: T2, fluorescent dye-labeled human CD5 protein (human, UniProt P06127 25-371, limits assumed, fluorescent dye label (dye and sites not stated)); assay: flow cytometry: CT125A cells with graded fluorescent human CD5 protein; average of three experiments
T2 construct: also called human CD5 antigen
T2 sequence (looked up): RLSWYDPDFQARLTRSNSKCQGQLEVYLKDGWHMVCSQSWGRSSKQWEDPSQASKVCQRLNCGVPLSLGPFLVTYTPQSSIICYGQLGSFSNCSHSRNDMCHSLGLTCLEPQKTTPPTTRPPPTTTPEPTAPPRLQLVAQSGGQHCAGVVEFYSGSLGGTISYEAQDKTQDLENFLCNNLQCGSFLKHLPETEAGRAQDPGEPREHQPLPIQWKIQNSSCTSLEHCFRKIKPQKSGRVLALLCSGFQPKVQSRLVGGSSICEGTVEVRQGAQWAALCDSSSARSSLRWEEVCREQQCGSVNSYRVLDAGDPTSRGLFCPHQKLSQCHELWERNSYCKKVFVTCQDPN
Text: (§1) The relationship between the percentage of the fluorescence-labeled CAR+positive cells and the concentration of CD5 protein was fitted by Graphpad Prism software to calculate the affinity EC50 constant. This experiment was completed by Shanghai IASO Biotherapeutics Co., Ltd., and a total of three independent experiments were repeated.

[3] = molecular target: T2, fluorescent dye-labeled human CD5 …; assay: flow cytometry: CT125A cells with graded fluorescent human CD5 protein, percent labelled CAR+ cells fitted; 1st time
Text: as §1

[4] = molecular target: T2, fluorescent dye-labeled human CD5 …; assay: flow cytometry: CT125A cells with graded fluorescent human CD5 protein, percent labelled CAR+ cells fitted; 2nd time
Text: as §1

[5] = molecular target: T2, fluorescent dye-labeled human CD5 …; assay: flow cytometry: CT125A cells with graded fluorescent human CD5 protein, percent labelled CAR+ cells fitted; 3rd time
Text: as §1

[6] = molecular target: T3, CD5 antigen (Acro, CD5-H52H5) (UniProt P06127 25-371); assay: BLI (Octet), IgG loaded on the biosensor, CD5 antigen 100 to 1.563 nM, 1:1 model
T3 construct: Bought protein
T3 sequence (looked up): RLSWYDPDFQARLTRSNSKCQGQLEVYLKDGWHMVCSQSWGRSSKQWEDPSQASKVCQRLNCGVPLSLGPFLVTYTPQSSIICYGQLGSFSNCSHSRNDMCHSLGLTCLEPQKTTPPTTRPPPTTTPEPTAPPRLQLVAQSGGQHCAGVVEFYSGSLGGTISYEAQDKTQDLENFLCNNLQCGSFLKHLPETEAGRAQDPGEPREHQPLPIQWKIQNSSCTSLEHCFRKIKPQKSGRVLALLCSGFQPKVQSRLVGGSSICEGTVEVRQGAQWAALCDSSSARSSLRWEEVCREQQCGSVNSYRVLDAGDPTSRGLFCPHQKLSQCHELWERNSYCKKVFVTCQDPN

[7] = molecular target: T1, human CD5 expressed on cells; assay: flow cytometry on SUP-T1-Luc cells (called Kd in paragraph 233); average of three experiments
Protocol: (§2) The relationship between the percentage of fluorescence-labeled positive CD5⁺ target cells and different concentrations of CD5 tandem single-domain antibody was analyzed by fitting using Graphpad Prism software to calculate the EC50 constant. A total of three independent repetitions were performed in this experiment.

[8] = molecular target: T1, human CD5 expressed on cells; assay: flow cytometry on CCRF-CEM-Luc cells (called Kd in paragraph 233); average of three experiments
Protocol: as §2

[9] = molecular target: T1, human CD5 expressed on cells; assay: flow cytometry on JVM-2-Luc-CD5 cells (called Kd in paragraph 233); average of three experiments
Protocol: as §2

[10] = molecular target: T1, human CD5 expressed on cells; assay: flow cytometry on MEC-1-CD5-Luc cells (called Kd in paragraph 233); average of three experiments
Protocol: as §2

[11] = molecular target: T1, human CD5 expressed on cells; assay: flow cytometry on SUP-T1-Luc cells, percent positive cells fitted (called Kd in paragraph 233); 1st time
Protocol: as §2

[12] = molecular target: T1, human CD5 expressed on cells; assay: flow cytometry on SUP-T1-Luc cells, percent positive cells fitted (called Kd in paragraph 233); 2nd time
Protocol: as §2

[13] = molecular target: T1, human CD5 expressed on cells; assay: flow cytometry on SUP-T1-Luc cells, percent positive cells fitted (called Kd in paragraph 233); 3rd time
Protocol: as §2

[14] = molecular target: T1, human CD5 expressed on cells; assay: flow cytometry on CCRF-CEM-Luc cells, percent positive cells fitted (called Kd in paragraph 233); 1st time
Protocol: as §2

[15] = molecular target: T1, human CD5 expressed on cells; assay: flow cytometry on CCRF-CEM-Luc cells, percent positive cells fitted (called Kd in paragraph 233); 2nd time
Protocol: as §2

[16] = molecular target: T1, human CD5 expressed on cells; assay: flow cytometry on CCRF-CEM-Luc cells, percent positive cells fitted (called Kd in paragraph 233); 3rd time
Protocol: as §2

[17] = molecular target: T1, human CD5 expressed on cells; assay: flow cytometry on JVM-2-Luc-CD5 cells, percent positive cells fitted (called Kd in paragraph 233); 1st time
Protocol: as §2

[18] = molecular target: T1, human CD5 expressed on cells; assay: flow cytometry on JVM-2-Luc-CD5 cells, percent positive cells fitted (called Kd in paragraph 233); 2nd time
Protocol: as §2

[19] = molecular target: T1, human CD5 expressed on cells; assay: flow cytometry on JVM-2-Luc-CD5 cells, percent positive cells fitted (called Kd in paragraph 233); 3rd time
Protocol: as §2

[20] = molecular target: T1, human CD5 expressed on cells; assay: flow cytometry on MEC-1-CD5-Luc cells, percent positive cells fitted (called Kd in paragraph 233); 1st time
Protocol: as §2

[21] = molecular target: T1, human CD5 expressed on cells; assay: flow cytometry on MEC-1-CD5-Luc cells, percent positive cells fitted (called Kd in paragraph 233); 2nd time
Protocol: as §2

[22] = molecular target: T1, human CD5 expressed on cells; assay: flow cytometry on MEC-1-CD5-Luc cells, percent positive cells fitted (called Kd in paragraph 233); 3rd time
Protocol: as §2

B1: FHVH3VH1 CAR (other)
chain: QVQLVQSGAEVKKPGSSVKVSCKASGGTFSNYAISWVRQAPGQGLEWMGWISAYNGDTKYAQRLQGRVTMTTDTSTSTAYMELRNLRSDDTAVYYCARYESMSGQDIWGQGTLVTVSSGGGGSGGGGSGGGGSEVQLLESGGGLVQPGGSLRLSCAASGFTFSHSAMGWVRQAPGKGLEWVSSIYARGGYTYYADSVKGRFTISRDNSKNTLYLQMNSLRAEDTAVYYCARGYHLEYMVSQDVWGQGTLVTVSSFVPVFLPAKPTTTPAPRPPTPAPTIASQPLSLRPEACRPAAGGAVHTRGLDFACDIYIWAPLAGTCGVLLLSLVITLYCNHRNKRGRKKLLYIFKQPFMRPVQTTQEEDGCSCRFPEEEEGGCELRVKFSRSADAPAYQQGQNQLYNELNLGRREEYDVLDKRRGRDPEMGGKPRRKNPQEGLYNELQKDKMAEAYSEIGMKGERRRGKGHDGLYQGLSTATKDTYDALHMQALPPR
notes: Signal peptide left out; T2A remnant at the C-terminus not written; also called CT125A; CT125A injection
B1 was tested, and the “cytotoxicity on CCRF-CEM-Luc cells, effector-target ratio 1:1” value [1] was 95.6%, the “cytotoxicity on CCRF-CEM-Luc cells, effector-target ratio 2:1” value [1] was 96.9% and the “cytotoxicity on JVM-2-Luc-CD5 cells, effector-to-target ratio 5:1” value [1] was 96.4%. The “cytotoxicity on JVM-2-Luc-CD5 cells, effector-to-target ratio 10:1” value [1] was 98.5%, the “cytotoxicity on MEC-1-CD5-Luc cells, effector-to-target ratio 1:1” value [1] was 97.7% and the “cytotoxicity on MEC-1-CD5-Luc cells, effector-to-target ratio 2:1” value [1] was 98.2%. For the same binder, the “cytotoxicity on SUP-T1-Luc cells, effector-target ratio 1:1” value [1] was 56.9%, the “cytotoxicity on SUP-T1-Luc cells, effector-target ratio 2:1” value [1] was 91% and the EC50 [2] was 2.07 nM. The EC50 [3] was 3.82 nM, the EC50 [4] was 1.22 nM and the EC50 [5] was 1.18 nM.

B2: FHVH2 (#60 IgG) (Fc fusion)
chain: QVQLVESGGGLVQPGGSLRLSCAASGFTFSSYEMNWVRQAPGKGLEWVSYISSSGSTIYYADSVKGRFTISRDNAKNSLYLQMNSLRAEDTAVYYCARVAQREGDVWGKGTTVTVSS
notes: also called anti-CD5 IgG; not shown: human IgG4 Fc
Binder B2 has a Kd [6] of 8.32 nM, a koff [6] of 0.000212 s⁻¹ and a kon [6] of 25500 M⁻¹ s⁻¹.

B3: FHVH4 (#62 IgG) (Fc fusion)
chain: QVQLVQSGAEVKKPGESLRISCKASGYSFSNHWIGWVRQKPGKGLEWMGSVYPGDSDTRYSPSFQGHVTVSADKSMNTAYLQWSSLKTSDTAMYYCARGGTIDGDYGGRQDFWGQGTMVTVSS
notes: as for B2
B3 showed a Kd [6] of 27.4 nM, a koff [6] of 0.000309 s⁻¹ and a kon [6] of 12500 M⁻¹ s⁻¹.

B4: FHVH3 (#61 IgG) (Fc fusion)
chain: QVQLVQSGAEVKKPGSSVKVSCKASGGTFSNYAISWVRQAPGQGLEWMGWISAYNGDTKYAQRLQGRVTMTTDTSTSTAYMELRNLRSDDTAVYYCARYESMSGQDIWGQGTLVTVSS
notes: also called #61 clone; anti-CD5 IgG; not shown: human IgG4 Fc
B4 was tested, and the Kd [6] was 3.96 nM, the koff [6] was 0.000288 s⁻¹ and the kon [6] was 72800 M⁻¹ s⁻¹.

B5: FHVH1 (#42 IgG) (Fc fusion)
chain: EVQLLESGGGLVQPGGSLRLSCAASGFTFSHSAMGWVRQAPGKGLEWVSSIYARGGYTYYADSVKGRFTISRDNSKNTLYLQMNSLRAEDTAVYYCARGYHLEYMVSQDVWGQGTLVTVSS
notes: also called #42 clone; anti-CD5 IgG; not shown: human IgG4 Fc
Work on B5 yielded a Kd [6] of 2.9 nM, a koff [6] of 0.000139 s⁻¹ and a kon [6] of 48000 M⁻¹ s⁻¹.

B6: FHVH3VH1 (#61-42 IgG) (Fc fusion)
chain: QVQLVQSGAEVKKPGSSVKVSCKASGGTFSNYAISWVRQAPGQGLEWMGWISAYNGDTKYAQRLQGRVTMTTDTSTSTAYMELRNLRSDDTAVYYCARYESMSGQDIWGQGTLVTVSSGGGGSGGGGSGGGGSEVQLLESGGGLVQPGGSLRLSCAASGFTFSHSAMGWVRQAPGKGLEWVSSIYARGGYTYYADSVKGRFTISRDNSKNTLYLQMNSLRAEDTAVYYCARGYHLEYMVSQDVWGQGTLVTVSS
notes: as for B2
Binder B6 has a Kd [6] of 1.67 nM, a koff [6] of 0.000189 s⁻¹ and a kon [6] of 113000 M⁻¹ s⁻¹.

B7: CT125A tandem single-domain antibody rabbit FC fusion protein RD125 61-42 rFc (Fc fusion)
chain: QVQLVQSGAEVKKPGSSVKVSCKASGGTFSNYAISWVRQAPGQGLEWMGWISAYNGDTKYAQRLQGRVTMTTDTSTSTAYMELRNLRSDDTAVYYCARYESMSGQDIWGQGTLVTVSSGGGGSGGGGSGGGGSEVQLLESGGGLVQPGGSLRLSCAASGFTFSHSAMGWVRQAPGKGLEWVSSIYARGGYTYYADSVKGRFTISRDNSKNTLYLQMNSLRAEDTAVYYCARGYHLEYMVSQDVWGQGTLVTVSS
notes: also called CD5 tandem single-domain antibody rabbit Fc fusion protein; not shown: rabbit Fc
Work on B7 yielded an EC50 [7] of 4.02 nM, an EC50 [8] of 2.99 nM and an EC50 [9] of 0.64 nM. The EC50 [10] was 1.14 nM, the EC50 [11] was 2.72 nM and the EC50 [12] was 4.58 nM. It also gave an EC50 [13] of 4.75 nM, an EC50 [14] of 3.04 nM and an EC50 [15] of 2.54 nM. The EC50 [16] was 3.39 nM, the EC50 [17] was 0.64 nM and the EC50 [18] was 0.56 nM. For the same binder, the EC50 [19] was 0.72 nM, the EC50 [20] was 1.3 nM and the EC50 [21] was 0.92 nM. For the same binder, the EC50 [22] was 1.2 nM.

— patent US20240050568A1 (NANJING IASO BIOTECHNOLOGY, published 2024)
